Experiment [1] concerns splenic dendritic cells. Description: In vivo splenic dendritic cell activation. Also on record: species or system mice. The note with it: single IV dose; 6 or 24 hours, especially the 24 hour time point. As for the experimental part: For each panel, the samples are (left to right): untreated, sheep RBCs, αCD47 (MIAP301), αSIRPα (P84), mSIRPα-Fc-CD40L, mSIRPα-Fc-CD40L (24 Hrs), and αCD47 (MIAP301) (24 hrs). FIG. 9B is a quantitation of in vivo dendritic cell activation corresponding to FIG. 9A. Shown is the absolute percent of CD4+ and CD8+ dendritic cells; also gated on CD11c and DC1R2. In FIG. 9B, for each panel, the samples are (left to right): untreated, sheep RBCs, αCD47 (MIAP301), αSIRPα (P84), SIRPα-Fc-CD40L (150 μg), SIRPα-Fc-CD40L (300 μg), SIRPα-Fc-CD40L (300 μg) (24 Hrs), and αCD47 (MIAP301) (24 hrs).
An in vivo assay to examine SIRPα/CD47 function in mice was describe in Yi et al., “Splenic Dendritic Cells Survey Red Blood Cells for Missing Self-CD47 to Trigger Adaptive Immune Responses. Immunity. 2015;43(4):764-75) (the contents of which is incorporated by reference in its entirety). This assay detects the activation status of splenic dendritic cells in response to SIRPa/CD47 inhibitors or to infused sheep red blood cells (RBC).
After 6 or 24 hours, mice were euthanized and their spleens excised, dissociated, and assessed by flow cytometry for populations of activated CD4+ dendritic cells (DCs) (FIG. 9A, left panel) or CD8+dendritic cells (FIG. 9A, right panel); both populations of dendritic cells were also positive for MHC II (I-Ab), CD11c, and DC1R2.

Experiment [2] deals with WEHI3 leukemia cells. As to the kind of experiment: Murine phagocytosis assay, BMDMs with WEHI3 leukemia cells. The format is cell-based.
The target of experiment [3] is recombinant mouse CD47 and CD40 (Mus musculus, UniProt P27512+Q61735). As to the kind of experiment: Dual functional ELISA of the murine surrogate. The format is binding. Background: An ELISA detects its analyte on a solid surface through an enzyme-linked reagent.
The subject of experiment [4] is CT26 tumors. As to the kind of experiment: Syngeneic CT26 colon tumor model versus CD40/CD47 antibodies (Example 11). The format is in vivo, mice. As for the experimental part: FIG. 20C: a similar CT26 experiment was initiated as described in FIG. 20A above, however mice were pre-treated on days −1, 1, and 10 with IP injections of 100 μg of either or both CD4/CD8 depleting antibodies. Mice were inoculated with CT26 tumors on day 0 and treated at a later starting date than FIG. 20A with mSIRPα-Fc-CD40L ARC on days 7, 9, and 11. […] In FIG. 20D and FIG. 20E, BALB/C mice were inoculated with WEHI3 tumors (FIG. 20D) or A20 tumors (FIG. 20E) subcutaneously on the rear flank, and then treated via IP injection with anti-CD20 or mSIRPα-Fc-CD40L on days 7, 9, and 11 (WEHI3) or days 10, 12, and 14 (A20); when tumors were established and reached approximately 57-60 mm^3. A cohort of mice were pre-treated with an interferon alpha receptor 1 (IFNAR1) blocking antibody ([…] by IP injection) on days -1, 1, and 10 (WEHI3) or on days −1, 1, and 13 (A20). FIG. 20F to FIG. 20H are graphs showing blockade of CD4, CD8, and IFNAR1. Peripheral blood analysis by flow cytometry of CD4 (FIG. 20F), CD8 (FIG. 20G), and IFNAR1 (FIG. 20H) depletion following depleting antibody treatment corresponding to FIG. 20C to FIG. 20E. Samples were normalized to untreated animals.
Implanted CT26 tumors were allowed to grow to ˜30 mm^3 before treatment was initiated with a fixed regimen of two doses of either a CD40 agonist antibody (clone FGK4.5), a CD47 blocking antibody (clone MIAP301), a combination of the two antibodies, or the murine SIRPα-Fc-CD40L chimeric protein. […] Based on this observation, these experiments were repeated in the setting of antibody-mediated depletion of both CD4+ and CD8+ cells (FIG. 20C).
CD4 and CD8 depletion was verified in the peripheral blood at multiple time points during the experiment (see, FIG. 20F and FIG. 20G).

Experiment [5] has as its target T1, murine CD40 (Mus musculus, UniProt P27512).
T1 construct: expressed in transfected cells; host or cells: CHO-K1
As to the kind of experiment: Murine CD40/NFκB-luciferase reporter in CHOK1 cells. It is filed as cell-based. As for the experimental part:
Cells were cultured with a dose titration of recombinant human CD40L-his or SIRPα-Fc-CD40L, and luminescence was read on a luminometer after 6 hours. The left histograms are (−) Control, middle histograms are hCD40L-His and the right histograms are SIRPα-Fc-CD40L. […] CD8-depleted PBMC from 33-50 distinct human donors were cultured with media only, the neoantigen positive control KLH, the clinical stage non-activating control Exenatide, or 0.3, 3, 30, or 300 nM of SIRPα-Fc-CD40L. At 10 μg/ml on the X-axis, the samples are, top to bottom: hCD40L-Fc, SIRPα-Fc-CD40L, ahCD40 (HB14) ad (−) Control. […] The left histograms are (−) control, second from left are FC-mCD40L, second from right are anti-mCD40 (FGK4.5) and right are mSIRPα-Fc-CD40L.
The murine version of the CD40/NFκB-luciferase system was established in CHOK1 cells.
In general terms: Reporter assays use an easily measured gene product as a stand-in for the process of interest.

Experiment [6] deals with peripheral blood cell populations. As to the kind of experiment: Peripheral blood cell populations in treated mice. It is filed as in vivo. As for the experimental part: FIG. 22B is a graph showing RBCs and test agents that were incubated at 37° C. for 24 hours and then the media was assessed at OD490 for changes in absorbance due to hemoglobin being released from lysing RBCs. […] FIG. […] Cell populations were assessed by flow cytometry and included CD20+ B cells, CD110+, CD4+/CD11c+, and CD8+/CD11c+ dendritic cells.
Receptor occupancy was evaluated on circulating CD40+ lymphocytes.

For experiment [7], the system named is A20 lymphoma. As to the kind of experiment: Murine phagocytosis assay, BMDMs with A20 lymphoma cells. It is filed as cell-based.

T1 sequence (P27512 20-289): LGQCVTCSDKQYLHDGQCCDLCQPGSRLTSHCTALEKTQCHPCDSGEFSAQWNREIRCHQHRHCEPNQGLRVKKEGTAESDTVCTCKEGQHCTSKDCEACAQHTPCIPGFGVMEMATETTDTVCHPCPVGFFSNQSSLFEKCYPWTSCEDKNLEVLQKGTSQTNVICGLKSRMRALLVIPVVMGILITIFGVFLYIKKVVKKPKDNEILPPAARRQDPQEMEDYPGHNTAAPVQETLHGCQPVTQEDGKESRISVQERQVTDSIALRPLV

B1: mSIRPα-Fc-CD40L: Murine version of SIRPα-Fc-CD40L, made from murine proteins to assess activity in vivo (protein)
chain: KELKVTQPEKSVSVAAGDSTVLNCTLTSLLPVGPIRWYRGVGPSRLLIYSFAGEYVPRIRNVSDTTKRNNMDFSIRISNVTPADAGIYYCVKFQKGSSEPDTEIQSGGGTEVYVLAKPSPPEVSGPADRGIPDQKVNFTCKSHGFSPRNITLKWFKDGQELHPLETTVNPSGKNVSYNISSTVRVVLNSMDVNSKVICEVAHITLDRSPLRGIANLSNFIRVSPTVKVTQQSPTSMNQVNLTCRAERFYPEDLQLIWLENGNVSRNDTPKNLTKNTDGTYNYTSLFLVNSSAHREDVVFTCQVKHDQQPAITRNHTVLGFAHSSDQGSMQTFPDNNATHNWNVPRDCGCKPCICTVPEVSSVFIFPPKPKDVLTITLTPKVTCVVVDISKDDPEVQFSWFVDDVEVHTAQTQPREEQFNSTFRSVSELPIMHQDWLNGKEFKCRVNSAAFPAPIEKTISKTKGRPKAPQVYTIPPPKEQMAKDKVSLTCMITDFFPEDITVEWQWNGQPAENYKNTQPIMNTNGSYFVYSKLNVQKSNWEAGNTFTCSVLHEGLHNHHTEKSLSHSPGKHRRLDKVEEEVNLHEDFVFIKKLKRCNKGEGSLSLLNCEEMRRQFEDLVKDITLNKEEKKENSFEMQRGDEDPQIAAHVVSEANSNAASVLQWAKKGYYTMKSNLVMLENGKQLTVKREGLYYVYTQVTFCSNREPSSQRPFIVGLWLKPSSGSERILLKAANTHSSSQLCEQQSVHLGGVFELQAGASVFVNVTEASQVIHRVGFSSFGLLKL
Consider B1, for which, in experiment [1], the “splenic CD4+ and CD8α+ DCs expressing high levels of MHCII, CD80, and CD86” value is “greatly upregulated splenic CD4+ and CD8α+ DCs”. Besides, in experiment [2], the phagocytic activity result is “induced strong phagocytic activity” and the “phagocytosis index compared with CD47 blocking antibody” value was “higher phagocytosis index than the CD47 blocking antibody”. The “simultaneous binding to recombinant mouse CD47 and CD40” value in experiment [3] was “simultaneous binding”. The “rejection of a secondary tumor challenge among mice that rejected the primary tumor” value in experiment [4] (no additional treatment) amounted to 60%. For the same molecule, the “mice rejecting primary tumors” value in experiment [4] (two doses, treatment started at ˜30 mm^3) worked out at 62%. The “tumor growth / survival” value in experiment [4] (two doses, treatment started at ˜30 mm^3, versus vehicle controls) was “significant prolongation in tumor growth and survival”. Besides, the “activation of the NFκB pathway, murine CD40 reporter” value in experiment [5] is reported as “consistently stimulated potent activation of the NFκB pathway”. In addition, in experiment [6] (24 hours following a single IP injection (300 μg)), the “overall CD45+ peripheral lymphocytes” value is recorded as “decrease in overall CD45+ peripheral lymphocytes”. Further, in experiment [6] (mice), the “CD8+ dendritic cells in peripheral blood” value is reported as “significant increase in CD8+ dendritic cells” and the “CD40+ B cells in peripheral blood” value is listed as “peripheral decrease in CD40+ B cells”. In experiment [7], the phagocytic activity result was “induced strong phagocytic activity” and the “phagocytosis index compared with CD47 blocking antibody” value is reported as “higher phagocytosis index than the CD47 blocking antibody”.

Values taken from patent publication US20200071380A1, “COMBINATION THERAPIES COMPRISING SIRP ALPHA-BASED CHIMERIC PROTEINS” (Shattuck Labs, Inc., priority 2018, published 2020).
